In US20220298218A1 (ANTAG THERAPEUTICS, published 2022):
*1 amine or outer side, *2 acyl side, *3 side chain or, on linkers, in order; H or OH if unused. Where no end group is shown, it is not given here. Side-chain parts run from the residue outwards. The star is where a group is joined. C16 diacid = O=C(O)CCCCCCCCCCCCCCC(=O)*; γGlu = O=C(O)[C@H](CCC(=O)[*:2])N[*:1]; AEEA = NCCOCCOCC(=O)O

T1: human GIP receptor (human, UniProt P48546 22-466)
T1 sequence (looked up): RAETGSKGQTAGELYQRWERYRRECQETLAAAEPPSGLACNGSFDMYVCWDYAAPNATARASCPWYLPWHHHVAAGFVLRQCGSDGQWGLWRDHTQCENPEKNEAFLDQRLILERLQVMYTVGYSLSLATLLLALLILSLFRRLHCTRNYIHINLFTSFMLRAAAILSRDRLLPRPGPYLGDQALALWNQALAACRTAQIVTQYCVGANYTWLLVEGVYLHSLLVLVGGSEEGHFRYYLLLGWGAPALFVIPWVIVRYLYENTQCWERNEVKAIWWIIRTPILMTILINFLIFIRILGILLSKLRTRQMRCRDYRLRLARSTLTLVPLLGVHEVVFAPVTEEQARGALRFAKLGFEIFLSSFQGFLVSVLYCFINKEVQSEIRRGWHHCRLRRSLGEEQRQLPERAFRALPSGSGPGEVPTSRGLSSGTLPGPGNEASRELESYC


molecular target: T1, human GIP receptor; assay: cell-based or functional assay

Binder	cAMP antagonism [nM]	cAMP antagonism % inhib [%]	cAMP antagonism log [log M]
FISDYSIAMDKIK(C16 diacid)QQDFVNWLLAQKGKKNDWKHNITQ-OH (N-terminus assumed; SMILES CC[C@H](C)[C@H](NC(=O)[C@H](CO)NC(=O)[C@H](Cc1ccc(O)cc1)NC(=O)[C@H](CC(=O)O)NC(=O)[C@H](CO)NC(=O)[C@@H](NC(=O)[C@@H](N)Cc1ccccc1)[C@@H](C)CC)C(=O)N[C@@H](C)C(=O)N[C@@H](CCSC)C(=O)N[C@@H](CC(=O)O)C(=O)N[C@@H](CCCCN)C(=O)N[C@H](C(=O)N[C@@H](CCCCNC(=O)CCCCCCCCCCCCCCC(=O)O)C(=O)N[C@@H](CCC(N)=O)C(=O)N[C@@H](CCC(N)=O)C(=O)N[C@@H](CC(=O)O)C(=O)N[C@@H](Cc1ccccc1)C(=O)N[C@H](C(=O)N[C@@H](CC(N)=O)C(=O)N[C@@H](Cc1c[nH]c2ccccc12)C(=O)N[C@@H](CC(C)C)C(=O)N[C@@H](CC(C)C)C(=O)N[C@@H](C)C(=O)N[C@@H](CCC(N)=O)C(=O)N[C@@H](CCCCN)C(=O)NCC(=O)N[C@@H](CCCCN)C(=O)N[C@@H](CCCCN)C(=O)N[C@@H](CC(N)=O)C(=O)N[C@@H](CC(=O)O)C(=O)N[C@@H](Cc1c[nH]c2ccccc12)C(=O)N[C@@H](CCCCN)C(=O)N[C@@H](Cc1c[nH]cn1)C(=O)N[C@@H](CC(N)=O)C(=O)N[C@H](C(=O)N[C@H](C(=O)N[C@@H](CCC(N)=O)C(=O)O)[C@@H](C)O)[C@@H](C)CC)C(C)C)[C@@H](C)CC) [AT466]	16	90	-7.8
FISDYSIAMDKIK(C16 diacid)QQDFVNWLLAQKGKKNDW-OH (N-terminus assumed; SMILES CC[C@H](C)[C@H](NC(=O)[C@H](CO)NC(=O)[C@H](Cc1ccc(O)cc1)NC(=O)[C@H](CC(=O)O)NC(=O)[C@H](CO)NC(=O)[C@@H](NC(=O)[C@@H](N)Cc1ccccc1)[C@@H](C)CC)C(=O)N[C@@H](C)C(=O)N[C@@H](CCSC)C(=O)N[C@@H](CC(=O)O)C(=O)N[C@@H](CCCCN)C(=O)N[C@H](C(=O)N[C@@H](CCCCNC(=O)CCCCCCCCCCCCCCC(=O)O)C(=O)N[C@@H](CCC(N)=O)C(=O)N[C@@H](CCC(N)=O)C(=O)N[C@@H](CC(=O)O)C(=O)N[C@@H](Cc1ccccc1)C(=O)N[C@H](C(=O)N[C@@H](CC(N)=O)C(=O)N[C@@H](Cc1c[nH]c2ccccc12)C(=O)N[C@@H](CC(C)C)C(=O)N[C@@H](CC(C)C)C(=O)N[C@@H](C)C(=O)N[C@@H](CCC(N)=O)C(=O)N[C@@H](CCCCN)C(=O)NCC(=O)N[C@@H](CCCCN)C(=O)N[C@@H](CCCCN)C(=O)N[C@@H](CC(N)=O)C(=O)N[C@@H](CC(=O)O)C(=O)N[C@@H](Cc1c[nH]c2ccccc12)C(=O)O)C(C)C)[C@@H](C)CC) [AT464]	50	100	-7.3
FISDYSIAMDKIK(C16 diacid)QQDFVNWLLAQKGKKNDWKHN-OH (N-terminus assumed; SMILES CC[C@H](C)[C@H](NC(=O)[C@H](CO)NC(=O)[C@H](Cc1ccc(O)cc1)NC(=O)[C@H](CC(=O)O)NC(=O)[C@H](CO)NC(=O)[C@@H](NC(=O)[C@@H](N)Cc1ccccc1)[C@@H](C)CC)C(=O)N[C@@H](C)C(=O)N[C@@H](CCSC)C(=O)N[C@@H](CC(=O)O)C(=O)N[C@@H](CCCCN)C(=O)N[C@H](C(=O)N[C@@H](CCCCNC(=O)CCCCCCCCCCCCCCC(=O)O)C(=O)N[C@@H](CCC(N)=O)C(=O)N[C@@H](CCC(N)=O)C(=O)N[C@@H](CC(=O)O)C(=O)N[C@@H](Cc1ccccc1)C(=O)N[C@H](C(=O)N[C@@H](CC(N)=O)C(=O)N[C@@H](Cc1c[nH]c2ccccc12)C(=O)N[C@@H](CC(C)C)C(=O)N[C@@H](CC(C)C)C(=O)N[C@@H](C)C(=O)N[C@@H](CCC(N)=O)C(=O)N[C@@H](CCCCN)C(=O)NCC(=O)N[C@@H](CCCCN)C(=O)N[C@@H](CCCCN)C(=O)N[C@@H](CC(N)=O)C(=O)N[C@@H](CC(=O)O)C(=O)N[C@@H](Cc1c[nH]c2ccccc12)C(=O)N[C@@H](CCCCN)C(=O)N[C@@H](Cc1c[nH]cn1)C(=O)N[C@@H](CC(N)=O)C(=O)O)C(C)C)[C@@H](C)CC) [AT465]	28	86	-7.6
SGTFISDYSIAMDRIK([AEEA-AEEA-AEEA-γGlu-C16 diacid])QQDFVNWLLAQRGRRNDW-OH (N-terminus assumed; SMILES CC[C@H](C)[C@H](NC(=O)[C@H](CO)NC(=O)[C@H](Cc1ccc(O)cc1)NC(=O)[C@H](CC(=O)O)NC(=O)[C@H](CO)NC(=O)[C@@H](NC(=O)[C@H](Cc1ccccc1)NC(=O)[C@@H](NC(=O)CNC(=O)[C@@H](N)CO)[C@@H](C)O)[C@@H](C)CC)C(=O)N[C@@H](C)C(=O)N[C@@H](CCSC)C(=O)N[C@@H](CC(=O)O)C(=O)N[C@@H](CCCNC(=N)N)C(=O)N[C@H](C(=O)N[C@@H](CCCCNC(=O)COCCOCCNC(=O)COCCOCCNC(=O)COCCOCCNC(=O)CC[C@H](NC(=O)CCCCCCCCCCCCCCC(=O)O)C(=O)O)C(=O)N[C@@H](CCC(N)=O)C(=O)N[C@@H](CCC(N)=O)C(=O)N[C@@H](CC(=O)O)C(=O)N[C@@H](Cc1ccccc1)C(=O)N[C@H](C(=O)N[C@@H](CC(N)=O)C(=O)N[C@@H](Cc1c[nH]c2ccccc12)C(=O)N[C@@H](CC(C)C)C(=O)N[C@@H](CC(C)C)C(=O)N[C@@H](C)C(=O)N[C@@H](CCC(N)=O)C(=O)N[C@@H](CCCNC(=N)N)C(=O)NCC(=O)N[C@@H](CCCNC(=N)N)C(=O)N[C@@H](CCCNC(=N)N)C(=O)N[C@@H](CC(N)=O)C(=O)N[C@@H](CC(=O)O)C(=O)N[C@@H](Cc1c[nH]c2ccccc12)C(=O)O)C(C)C)[C@@H](C)CC) [AT424]	35	100	-7.5
FISDYSIAMDKIK(C16 diacid)QQDFVNWLLAQKGKK-OH (N-terminus assumed; SMILES CC[C@H](C)[C@H](NC(=O)[C@H](CO)NC(=O)[C@H](Cc1ccc(O)cc1)NC(=O)[C@H](CC(=O)O)NC(=O)[C@H](CO)NC(=O)[C@@H](NC(=O)[C@@H](N)Cc1ccccc1)[C@@H](C)CC)C(=O)N[C@@H](C)C(=O)N[C@@H](CCSC)C(=O)N[C@@H](CC(=O)O)C(=O)N[C@@H](CCCCN)C(=O)N[C@H](C(=O)N[C@@H](CCCCNC(=O)CCCCCCCCCCCCCCC(=O)O)C(=O)N[C@@H](CCC(N)=O)C(=O)N[C@@H](CCC(N)=O)C(=O)N[C@@H](CC(=O)O)C(=O)N[C@@H](Cc1ccccc1)C(=O)N[C@H](C(=O)N[C@@H](CC(N)=O)C(=O)N[C@@H](Cc1c[nH]c2ccccc12)C(=O)N[C@@H](CC(C)C)C(=O)N[C@@H](CC(C)C)C(=O)N[C@@H](C)C(=O)N[C@@H](CCC(N)=O)C(=O)N[C@@H](CCCCN)C(=O)NCC(=O)N[C@@H](CCCCN)C(=O)N[C@@H](CCCCN)C(=O)O)C(C)C)[C@@H](C)CC) [AT463]	14	88	-7.8
TFISDYKIAMDKIHQQDFVNWLLAQKGKKNDWKHNIT (HELM PEPTIDE1{T.F.I.S.D.Y.K.I.A.M.D.K.I.H.Q.Q.D.F.V.N.W.L.L.A.Q.K.G.K.K.N.D.W.K.H.N.I.T}|PEPTIDE2{[O=C(O)CCCCCCCCCCCCCCC(=O)[*:2]].[gGlu]}$PEPTIDE1,PEPTIDE2,7:R3-2:R2$$$V2.0; N-terminus assumed; SMILES CC[C@H](C)[C@H](NC(=O)[C@H](CCCCNC(=O)CC[C@H](NC(=O)CCCCCCCCCCCCCCC(=O)O)C(=O)O)NC(=O)[C@H](Cc1ccc(O)cc1)NC(=O)[C@H](CC(=O)O)NC(=O)[C@H](CO)NC(=O)[C@@H](NC(=O)[C@H](Cc1ccccc1)NC(=O)[C@@H](N)[C@@H](C)O)[C@@H](C)CC)C(=O)N[C@@H](C)C(=O)N[C@@H](CCSC)C(=O)N[C@@H](CC(=O)O)C(=O)N[C@@H](CCCCN)C(=O)N[C@H](C(=O)N[C@@H](Cc1c[nH]cn1)C(=O)N[C@@H](CCC(N)=O)C(=O)N[C@@H](CCC(N)=O)C(=O)N[C@@H](CC(=O)O)C(=O)N[C@@H](Cc1ccccc1)C(=O)N[C@H](C(=O)N[C@@H](CC(N)=O)C(=O)N[C@@H](Cc1c[nH]c2ccccc12)C(=O)N[C@@H](CC(C)C)C(=O)N[C@@H](CC(C)C)C(=O)N[C@@H](C)C(=O)N[C@@H](CCC(N)=O)C(=O)N[C@@H](CCCCN)C(=O)NCC(=O)N[C@@H](CCCCN)C(=O)N[C@@H](CCCCN)C(=O)N[C@@H](CC(N)=O)C(=O)N[C@@H](CC(=O)O)C(=O)N[C@@H](Cc1c[nH]c2ccccc12)C(=O)N[C@@H](CCCCN)C(=O)N[C@@H](Cc1c[nH]cn1)C(=O)N[C@@H](CC(N)=O)C(=O)N[C@H](C(=O)N[C@H](C(=O)O)[C@@H](C)O)[C@@H](C)CC)C(C)C)[C@@H](C)CC) [AT462]	37	85	-7.4
